Results: publication doi:10.1101/2025.11.15.688601, “A multiplexed approach for genetic screening of human cells by electron microscopy uncovers a critical effector of mitochondrial cristae shape” (bioRxiv, 2025)

Target: the molecule itself
Experiment: SEC-MALS; about 10 mg/ml applied to Superdex 200 Increase 10/300 in PBS; DAWN HELEOS and Optilab T-rEX detectors

B1: Recombinant MISHA/FAM136A (sample of the SEC-MALS analysis) (natural protein)
chain: not shown
notes: human FAM136A/MISHA, Uniprot Q96C01, printed as 138 amino acids (the whole entry); tag removed before the assay; Applied at about 10 mg/ml; also called Mitochondrial-IMS membrane-SHApe-impacting protein; source: E. coli SHuffle, purified; tag cleaved in both
  stoichiometry N: 2
